This series in a line: label from the status in PepcDB records.
As for “MPDITISWVAAILGLVVAIVLILKKFNPVYSLFFGAIVGCLIGGASLSDTVAVLLNGTQSIMGTAIRVLAAGMLAGVMMESGAAESIANAIVQKLGEKKAILSLALSTMVITAVGVFIPVAVLIVAPIALSVGKSTGISKLSLLIALSGGGKAGNIISPNPNTIAAANGFDLPLSDVMIAGFIPAVFGLITAVVLANIMRNKGSMVKETDLVEEQTKELLPLKKALIAPVLAIVLLLLNPIGAVLNISFIKSLNIDALYILPFASVVGTIAIGQTKQLAFYASSGLKRVTDTVLILIGAGAIAGLISVSDLSTQIVHLISVMGISGTFLAPISGILMGLAVGSTSTAVILATGSFGPAILDMGTSSLSAAVMVHTGATVIDSVPQGNYFHITAQSMNMTIKERIRVIPYEMCVGGVMTIVATILYGFILN”, the protein production entry was “failed”.
Turning to “MPDLMHSELTMSGPEQSLLAGALLGAGLPADAHRHLELAGRDYQSEALAEQHLREAHLLAPDHAAVLIGLYRFYFYKGRLGEALEVAQACLCKAARDNGLASDWRKVRRGDAEFSSYSAVLPRFYLFALKAYAYLQMRLGQLDEGHAAVEKLLELDPTDKVGAAVLLDVWRRIGQDDDD”, the protein production result is reported as “failed”.
Regarding “MPDPAAPGTLRPGGRTARIREAVLLAAGDALAADGFDALDLGEIARRAGVGKTTVYRRWGTPGGLAADLLADMAEQSLPRADTGALEEDLRANARLVVRTLDDPRQGRLFRALIAASLCNEQAAEALHRFYAVRVDEWAGCVRDAVARGEVPDGTDPHGVVAAVSAPLYYALLNTGRSLTEADADRAARAASTAARAGVWVTG”, the protein production result is listed as “not failed”.
“MPDPQISAIICTHNRDTYLGAAIDSLLVQDFAGEFEVVVIDNGSSDRTREVVEQRSSDSRLKYVFEPTIGLSVARNTGAKFASAEILAYLDDDAVASTHWLQVLYAAYQNYPQLAIAGGKVTLLWPPDTQPPRWLSSGLAGNLGAYDLGDKVVYIQQPGLTPRGLNYSIRRTFLEEIGGFDPHLGRVGKNLLSNEELQMTELALTGGWQVAYLPEALVAHNVAPERLNRSWFLNRGWWQGISECYREQLSGKAGVGQLSRGGERLARGLYKAFRYFSNPAERFDNLVYAYGQIGYLNAVLQGLLFTANNKGSQLEHHHHHH”: the protein production result is reported as “not failed”.
As for “MPDPRGGAQGGGVSGQEGPTLISSVQRAFRLMEAVGAHESGVPAKQLARETGLALGTTYHLLRTMVHDGYVRKLEDGTFVLGERLGALHAGSRDQTALSRVRPTLTELRDDLSAAAYLTLYEEGEIRVAEIVDGPKAPRVDLWVGFEDAGHATALGKSVLRELDAEARADYLSRHALNDLTPRTITYRAQLLRSLDAAPRGPAVTDLEEYRLGTACVAVPVRRGDTIGSLGISVDINRTACLDDAVTTLLATAERVSRGLSLTI”, the protein production entry is on record as “failed”.
Turning to “MPDSPTLLDLFAEDIGHANQLLQLVDEEFQALERRELPVLQQLLGAKQPLMQQLERNGRARAEILREAGVSLDREGLARYARERADGAELLARGDELGELLERCQQANLRNGRIIRANQASTGSLLNILRGQDAPSLYDSRGGTASSSRQRPLSKA”, the protein production entry is listed as “not failed”.
In the case of “MPDTPLLASSQPAAGRRALGLSARLAFAALAGGGGLAWIDRGDTALWLIAPALLWLQVLLTLAGVLALAGGSRLPGALIVALSAGLLVPPLTVEMRLLGFFLAAPPPDQSILTTAQYTLAGALAAGALAWILARRRFGRPPCSWTMLDCGGPGAEIDMDAALASLSAETLRRRDRAYIDAPPPLPFAPRGPPRPPPPTLGGPRLKRMPAGLGGAILCLESDDHTLRVHTTQGSGTLAGRLGDAALDLGESAGLRVHRSWWVAREAVSAIERDGRRMRLILLNGMDVPVSRAHQPKVLAGPWPNLRVS”, the protein production result is reported as “failed”.
On to “MPDVLPHPDGPDSTARPWCSVVIPVLHEAVTIAAQVAHVRHVAARCGMEVEVVVADGAKERDTLAALPEGCCTAVASCPGRARQMNAGAGKARGETLLFLHADTHLPPEAFTLLRRARQAGIRAGAFRLGIAATGLWFRLVERLACWRNRLVRTPYGDQAQFFDAALFRAVGGYPDQPLMEDVEVMRRLRKAGERIVILPGRVETSARRWFVEGPLRCTLRNLCLRLLYALGVPAHALSRWYRAHKERP”, for which the protein production entry is on record as “failed”.
“MPDYDLIAILGPTASGKTPFAAALAAELNTEIISADSRQIYRGMDLGTGKDLEDYTINGRQIPYHLIDIADPGYKYNVFEYQRDFLTAYETIKQKGCLPVLCGGTGLYLESVLKGYRLIPVPENQELRVRLAEKSLEELTAILSSYKTLHNSTDVDTVKRAIRAIEIEEYYAKTPIEEREFPQLNSLIIGVDIDRELRREKITRRLKQRLDDGMVEEVRRLLAEGIQPDDLIYYGLEYKYLTLYAIGKMTYDEMFTGLETAIHQFAKRQMTWFRGMERRGFTIHWVDASLPMEEKINFVKQKLKEFLEHHHHHH”: the protein production entry is listed as “not failed”.

These data come from a protein production outcome set (Wang et al. 2014).
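Also: failed if final PepcDB status was selected cloned or expressed and not failed if soluble or beyond.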
